Reference: patent US20170166894A1, “APTAMERS FOR TOPICAL DELIVERY” (GlaxoSmithKline Intellectual Property Development Limited, published 2017)

Legend:
[1] = target: T1, IL-23 (p40/p19 heterodimer), endogenous from activated monocytes (Homo sapiens, UniProt P29460;Q9NPF7 SEQ:23-328,SEQ:20-189); assay: cell_activity; STAT3 activation in PHA blasts, endogenous IL-23
Method: Additionally, the ability of ARC20122 as well as its minimer ARC32225 to inhibit IL-23 dependent stimulation of STAT3 activity in PHA-Blast cells was tested. This assay utilized endogenous IL-23 produced from purified monocytes as described herein. […] ARC32225 performed slightly better than its parent clone with an IC₅₀ of 0.075 nM±0.030 nM. In both cases, the activity was markedly better than the control anti-p19 antibody, IC₅₀=0.69 nM±0.12 nM.
(§1) The ability of ARC32225 to inhibit endogenous IL-23 activation of PHA/IL-2 activated T-cells was tested by measuring levels of phospho-STAT3 (“phospho-STAT3 assay”). The binding of IL-23 to its receptor on activated T-cells stimulates several STAT pathways, including STAT3. Peripheral Blood Mononuclear Cells (PBMC) from fresh human blood were isolated by centrifugation in a Histopaque gradient and treated with PHA/IL-2 to enrich for T-cells and to upregulate IL-23 receptors. Cells were serum starved and treated with endogenous IL-23 for 15 minutes, and then lysed. Relative levels of phospho-STAT3 in IL-23 treated lysates, in the presence and absence of ARC32225 or a neutralizing p19 antibody, were measured by ELISA (Cell Signaling Technologies, Danvers, Mass.). Titrations of aptamer/antibody were used to generate inhibition curves from which IC₅₀ determinations were made.

[2] = target: IL-23 (p40/p19 heterodimer), recombinant human (Homo sapiens, UniProt P29460;Q9NPF7 SEQ:23-328,SEQ:20-189); assay: in presence of competitor tRNA (18,000-fold excess); details: tags: R&D Systems 1290-IL-010/CF (catalogue number stated for the selection)
Sequence of IL-23 (p40/p19 heterodimer), recombinant human (P29460 23-328, chain 1 of 2): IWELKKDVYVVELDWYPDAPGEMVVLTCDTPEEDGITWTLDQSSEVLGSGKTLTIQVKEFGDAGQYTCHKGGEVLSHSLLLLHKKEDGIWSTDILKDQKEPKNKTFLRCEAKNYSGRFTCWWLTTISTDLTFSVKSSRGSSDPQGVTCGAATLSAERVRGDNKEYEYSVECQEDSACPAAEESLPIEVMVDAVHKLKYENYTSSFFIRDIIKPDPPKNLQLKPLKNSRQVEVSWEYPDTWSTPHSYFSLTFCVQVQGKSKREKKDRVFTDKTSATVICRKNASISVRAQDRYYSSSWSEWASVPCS
Sequence of IL-23 (p40/p19 heterodimer), recombinant human (Q9NPF7 20-189, chain 2 of 2): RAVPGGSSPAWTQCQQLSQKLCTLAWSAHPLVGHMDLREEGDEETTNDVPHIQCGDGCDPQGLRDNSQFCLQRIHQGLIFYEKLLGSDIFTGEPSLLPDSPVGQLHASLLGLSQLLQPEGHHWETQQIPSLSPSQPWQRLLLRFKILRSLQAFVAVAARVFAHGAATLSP

[3] = target: T1, IL-23 (p40/p19 heterodimer), endogenous …; assay: cell_activity; STAT3 inhibition assay; compensatory pair restores activity; IL-23 source not stated for this assay
[4] = target: T1, IL-23 (p40/p19 heterodimer), endogenous …; assay: cell_activity; STAT3 inhibition assay; disrupts G2-C30 loop-tail tertiary contact; IL-23 source not stated for this assay
[5] = target: T1, IL-23 (p40/p19 heterodimer), endogenous …; assay: cell_activity; phospho-STAT3 ELISA in PHA/IL-2 T-cells, seven titrations; a separate comparison with ARC20122 gave 0.075±0.030 nM (p832)
Method: as §1
Percent inhibition was recorded for each concentration tested for all donors (data not shown). Individual IC50 for each donor were also recorded (data not shown).

T1 sequence (P29460 23-328, chain 1 of 2): as the sequence (P29460 23-328, chain 1 of 2) above
T1 sequence (Q9NPF7 20-189, chain 2 of 2): as the sequence (Q9NPF7 20-189, chain 2 of 2) above

B1: ARC20122 (ssRNA)
RNA: GGAGGGAAAAGUUAUCAGGCUUCUAUCGGGCGCCGCGUUUUCCCUGUGUUAGCCAUCGUCCGACGAGUAGGCUAGUCUGAUGCC
modifications: 2'-OMe A and G, 2'-F C and U (mA,mG,fC,fU)
- IC50 [1]: 0.26 nM
- Kd [2]: 9.1 nM

B2: ARC32225 G2A/C30U (ssRNA)
RNA: AAGGAAAUCAGGCUUUAUCGGGCGCCGCUUCCUGUGCCAUCGUCCGAGAGUAGGUAGUCUGU
modifications: mixed 2'-OMe and 2'-F as parent [mixed 2'-OMe and 2'-F as parent (positions not given)]
- IC50 [3]: 0.5 nM

B3: ARC32225 G2A (ssRNA)
RNA: AAGGAAAUCAGGCUUUAUCGGGCGCCGCUCCCUGUGCCAUCGUCCGAGAGUAGGUAGUCUGU
modifications: mixed 2'-OMe and 2'-F as parent [mixed 2'-OMe and 2'-F as parent (positions not given)]
- IC50 [4]: 108 nM

B4: ARC32225 (ssRNA)
RNA: AGGGAAAUCAGGCUUUAUCGGGCGCCGCUCCCUGUGCCAUCGUCCGAGAGUAGGUAGUCUG
modifications: mixed 2'-OMe and 2'-F as printed (10 mA, 1 fA, 14 mG, 6 fG, 3 mC, 13 fC, 1 mU, 13 fU); 3' idT
- IC50 [5]: 0.296 nM
